Assay results from PMC6443190, “Regulation of anthocyanin accumulation via MYB75/HAT1/TPL-mediated transcriptional repression” (PLoS Genetics, 2019).
Each block holds one binder with its values, some of them ahead of it.

B2: MBP-MYB75 (natural protein, Arabidopsis thaliana, UniProt Q9FE25 1-248, looked up)
chain: MEGSSKGLRKGAWTTEEDSLLRQCINKYGEGKWHQVPVRAGLNRCRKSCRLRWLNYLKPSIKRGKLSSDEVDLLLRLHRLLGNRWSLIAGRLPGRTANDVKNYWNTHLSKKHEPCCKIKMKKRDITPIPTTPALKNNVYKPRPRSFTVNNDCNHLNAPPKVDVNPPCLGLNINNVCDNSIIYNKDKKKDQLVNNLIDGDNMWLEKFLEESQEVDILVPEATTTEKGDTLAFDVDQLWSLFDGETVKFD
notes: MYB75, Arabidopsis thaliana, At1g56650; full-length, in pMAL-C2X; pMAL-C2X; also called full-length MYB75

Columns and labels:
Details in all cases: both partners purified
MBP-HAT1 = target: T1, MBP-HAT1 (Arabidopsis thaliana, UniProt P46600 1-282); test: pull-down; Ni-NTA beads with 5 ug HIS protein incubated with 5 ug MBP protein; 150 mM NaCl, 20 mM Tris, 0.2% Triton X-100, pH 8.0, 4 C, 2 h; anti-MBP blot
T1 construct: HAT1, Arabidopsis thaliana, At4g17460; full-length, in pMALc-B; pMALc-B; also called full-length HAT1
T1 sequence (looked up): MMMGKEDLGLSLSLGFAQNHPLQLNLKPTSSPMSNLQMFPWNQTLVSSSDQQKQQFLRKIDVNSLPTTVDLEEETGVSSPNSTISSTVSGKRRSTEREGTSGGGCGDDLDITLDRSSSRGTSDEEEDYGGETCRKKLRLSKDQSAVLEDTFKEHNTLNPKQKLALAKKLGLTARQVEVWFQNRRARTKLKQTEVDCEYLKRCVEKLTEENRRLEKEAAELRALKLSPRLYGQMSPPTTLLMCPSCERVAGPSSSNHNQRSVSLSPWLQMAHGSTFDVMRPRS

HIS-HAT1 [1] = target: T2, HIS-HAT1 (Arabidopsis thaliana, UniProt P46600 1-282); test: pull-down; competitive HIS pull-down: 5 ug MBP-TT8 or MBP-EGL3 mixed with 5, 10 or 20 ug HIS-HAT1, on Ni-NTA beads with 5 ug HIS-MYB75; 150 mM NaCl, 20 mM Tris, 0.2% Triton X-100, pH 8.0, 4 C, 2 h; anti-MBP blot
T2 construct: HAT1, Arabidopsis thaliana, At4g17460; full-length, in pET28a; pET28a; also called full-length HAT1
T2 sequence (looked up): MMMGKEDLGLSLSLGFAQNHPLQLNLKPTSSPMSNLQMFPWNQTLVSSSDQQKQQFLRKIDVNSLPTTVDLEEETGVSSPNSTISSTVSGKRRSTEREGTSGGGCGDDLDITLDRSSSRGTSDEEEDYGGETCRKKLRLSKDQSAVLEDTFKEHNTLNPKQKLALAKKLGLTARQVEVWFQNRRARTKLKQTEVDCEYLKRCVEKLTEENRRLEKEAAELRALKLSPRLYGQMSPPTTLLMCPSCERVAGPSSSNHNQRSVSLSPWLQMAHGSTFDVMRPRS

MBP-TT8 = target: T3, MBP-TT8 (Arabidopsis thaliana, UniProt Q9FT81 1-518); test: as above
T3 construct: TT8, Arabidopsis thaliana, At4g09820; pMAL-C2X
T3 sequence (looked up): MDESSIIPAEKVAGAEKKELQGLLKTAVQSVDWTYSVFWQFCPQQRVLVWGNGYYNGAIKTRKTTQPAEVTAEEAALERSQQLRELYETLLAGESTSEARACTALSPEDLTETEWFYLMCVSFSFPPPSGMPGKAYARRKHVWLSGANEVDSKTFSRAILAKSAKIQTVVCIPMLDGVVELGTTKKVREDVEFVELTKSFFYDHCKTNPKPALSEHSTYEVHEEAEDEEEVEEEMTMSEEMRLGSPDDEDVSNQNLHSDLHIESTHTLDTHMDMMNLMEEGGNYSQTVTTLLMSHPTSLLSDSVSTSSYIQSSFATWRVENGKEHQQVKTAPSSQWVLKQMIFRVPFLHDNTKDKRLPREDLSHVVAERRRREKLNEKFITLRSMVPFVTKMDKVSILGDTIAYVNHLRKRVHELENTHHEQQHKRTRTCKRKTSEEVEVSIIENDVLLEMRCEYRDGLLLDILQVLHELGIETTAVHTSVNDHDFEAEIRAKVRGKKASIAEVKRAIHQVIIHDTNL

MBP-EGL3 = target: T4, MBP-EGL3 (Arabidopsis thaliana, UniProt Q9CAD0 1-596); test: as above
T4 construct: EGL3, Arabidopsis thaliana, At1g63650; pMAL-C2X
T4 sequence (looked up): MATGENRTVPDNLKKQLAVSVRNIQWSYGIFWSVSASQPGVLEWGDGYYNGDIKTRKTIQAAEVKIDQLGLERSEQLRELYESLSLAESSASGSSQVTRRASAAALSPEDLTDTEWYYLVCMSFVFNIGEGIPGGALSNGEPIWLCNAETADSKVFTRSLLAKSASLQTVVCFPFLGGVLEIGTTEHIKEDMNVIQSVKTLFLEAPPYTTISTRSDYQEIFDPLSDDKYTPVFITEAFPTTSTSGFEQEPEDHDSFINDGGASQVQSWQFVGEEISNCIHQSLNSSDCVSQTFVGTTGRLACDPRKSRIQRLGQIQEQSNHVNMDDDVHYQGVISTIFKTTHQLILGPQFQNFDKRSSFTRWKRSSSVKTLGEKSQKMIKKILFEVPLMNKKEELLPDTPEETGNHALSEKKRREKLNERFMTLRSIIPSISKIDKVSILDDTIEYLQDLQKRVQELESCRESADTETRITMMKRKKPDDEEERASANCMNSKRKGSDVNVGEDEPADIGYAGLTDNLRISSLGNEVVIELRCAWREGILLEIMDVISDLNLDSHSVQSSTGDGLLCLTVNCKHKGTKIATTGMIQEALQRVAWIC

HIS-HAT1 [2] = target: T2, HIS-HAT1; test: pull-down; Ni-NTA beads with 5 ug HIS protein incubated with 5 ug MBP protein; 150 mM NaCl, 20 mM Tris, 0.2% Triton X-100, pH 8.0, 4 C, 2 h; anti-MBP blot
MBP-MYB75 = target: B2; test: as above

binding result (MBP-HAT1): binds | binding result (HIS-HAT1 [1]): binds | binding result (MBP-TT8): binds | binding result (MBP-EGL3): binds
B1: HIS-MYB75 (natural protein, Arabidopsis thaliana, UniProt Q9FE25 1-248, looked up)
chain: MEGSSKGLRKGAWTTEEDSLLRQCINKYGEGKWHQVPVRAGLNRCRKSCRLRWLNYLKPSIKRGKLSSDEVDLLLRLHRLLGNRWSLIAGRLPGRTANDVKNYWNTHLSKKHEPCCKIKMKKRDITPIPTTPALKNNVYKPRPRSFTVNNDCNHLNAPPKVDVNPPCLGLNINNVCDNSIIYNKDKKKDQLVNNLIDGDNMWLEKFLEESQEVDILVPEATTTEKGDTLAFDVDQLWSLFDGETVKFD
notes: MYB75, Arabidopsis thaliana, At1g56650; full-length, in pET28a; pET28a; also called full-length MYB75

Binder: B2
binding result (HIS-HAT1 [2]): binds

binding result (MBP-MYB75): binds
B3: HAT1 C-terminal fragment (pull-down fragment) (domain or fragment, Arabidopsis thaliana, UniProt P46600 234-282, looked up)
chain: SPPTTLLMCPSCERVAGPSSSNHNQRSVSLSPWLQMAHGSTFDVMRPRS
notes: HAT1, Arabidopsis thaliana, At4g17460; also called C-terminus of HAT1; not shown: 6xHis (inferred from the set-up of the methods)
